Test [1] deals with gD.trkB.IgG (gD tagged trkB.IgG fusion protein) (Herpes simplex virus; human) (UniProt Q16620). Kind of test: competitive displacement of iodinated NT5 from gD tagged trkB.IgG in 293 cell supernatant.
The target in test [2] is trkC.IgG (untagged trk.IgG fusion of the trkC extracellular domain and IgG-1 Fc) (human) (UniProt Q16288). Kind of test: competitive displacement of iodinated NT3 from trkC.IgG in 293 cell supernatant.
For test [3], the target named is gD.trkC.IgG (gD tagged trkC.IgG fusion protein) (Herpes simplex virus; human) (UniProt Q16288). Kind of test: competitive displacement of iodinated NT3 from gD tagged trkC.IgG in 293 cell supernatant.

As usually defined, the IC50 is the concentration at which inhibition is half-maximal.

B1: neurotrophin 5 (NT5) (ligand, UniProt P34130 81-210, looked up)
chain: GVSETAPASRRGELAVCDAVSGWVTDRRTAVDLRGREVEVLGEVPAAGGSPLRQYFFETRCKADNAEEGGPGAGGGGCRGVDRRHWVSECKAKQSYVRALTADAQGRVGWRWIRIDTACVCTLLSRTGRA
Consider B1, for which, in test [1], the concentration for half-maximal inhibition (IC50) stood at 0.0121 nM.

B2: neurotrophin 3 (NT3) (ligand, UniProt P20783 139-257, looked up)
chain: YAEHKSHRGEYSVCDSESLWVTDKSSAIDIRGHQVTVLGEIKTGNSPVKQYFYETRCKEARPVKNGCRGIDDKHWNSQCKTSQTYVRALTSENNKLVGWRWIRIDTSCVCALSRKIGRT
B2: the concentration for half-maximal inhibition (IC50) in test [2] was determined as 0.0311 nM; in test [3], 0.0302 nM.

(Values after US20020137113A1.)
